# Source: patent US10000775B2, “Biosynthesis of 1-undecene and related terminal olefins” (The Regents of the University of California, priority 2013, dated 2018)
# B1: PFL_4321: protein of 261 amino acids from Pseudomonas fluorescens Pf-5; non-heme iron (II)-dependent enzyme converting medium-chain fatty acids into terminal olefins (protein, listed as Pseudomonas fluorescens)
# chain: MIDTFSRTGPLMEAASYPAWTQQLIQDCSESKRRVVEHELYQRMRDNKLSAKVMRQYLIGGWPVVEQFALYMAQNLTKTRFARHPGEDMARRWLMRNIRVELNHADYWVHWSRAHGVTLEDLQAQQVPPELHALSHWCWHTSSADSLIVAIAATNYAIEGATGEWSALVCSNGIYAAAFPEEDRKRAMKWLKMHAQYDDAHPWEALEIIVTLAGLNPTKALQAELRQAICKSYDYMYLFLERCMQQEKTAVTRERLALAEG
# Assays:
# [1] = In vitro anaerobic enzymatic assays; assay type: biochemical
# Procedure: FIG. 6 illustrates GC-MS detection of 1-undecene production by PFL_4321 in the aerobic/anaerobic assays. The anaerobic assay was performed by using the anaerobically purified enzyme and degassed reagents, adding glucose oxidase/glucose/catalase, and conducting the experiment in an anaerobic chamber with ppm O2<0.7. The control aerobic assay was performed by using a similar reaction mixture under ambient air conditions and omitting glucose oxidase.
# All of the reagents were bubbled with nitrogen gas and equilibrated in the anaerobic chamber overnight before use. E. coli BL21 Gold (DE3, pZR60_HRV3c) was grown, harvested, and lysed as mentioned above. The insoluble fraction was removed by centrifugation, and the soluble proteins were incubated with 1 mL of Ni-NTA beads (Qiagen) on a nutator at 4° C. for 1 hr. The proteins were then moved into the anaerobic chamber, loaded onto a gravity flow column, washed with washing buffer (50 mM imidazole, 20 mM Tris, 300 mM NaCl, pH 8.5), and eluted with eluting buffer (300 mM imidazole, 20 mM Tris, 300 mM NaCl, pH 8.5). Purified proteins were exchanged into 20 mM Tris (pH 8.5) and 300 mM NaCl by passing through a desalting column (GE Disposable PD-10), and then concentrated using Amicon Centrifugal Filter Units. The protein solution was equilibrated in the anaerobic chamber on a Thermomixer at 4° C. overnight. […]
# [2] = tested on: Saccharomyces cerevisiae S288c; assay: Small-scale 1-alkene production in S. cerevisiae; assay type: cell-based; settings: expression of PFL_4321, 30° C., 36 hours
# Procedure: FIG. 25 illustrates GC-MS analysis of 1-undecene and nonene productions from Saccharomyces cerevisiae S288c (pESC_URA_PFL_4321). Saccharomyces cerevisiae S288c (pESC_URA_PFL_4321) was cultured in YPD media in sealed headspace vial at 30° C. for 36 hours before sampling using SPME-GCMS method.
# PFL_4321 was PCR-amplified by using pESC-und-F/-R as primers (Table 1) and pZR59 as template, digested with BamH1/Sal1, and ligated into the pESC-URA vector to yield pESC-PFL_4321. S. cerevisiae was then transformed with pESC-PFL_4321 using the lithium acetate method outlined in the pESC-URA manual (Stratagene). Transformants were selected by […]. The cultures were grown in yeast-peptone media supplemented with 1% galactose in headspace GC vials at 30° C. for 36 hr before SPME-GCMS analysis.
# [3] = Stoichiometry determination in single-turnover reactions; assay type: biochemical
# Procedure: FIG. 27 illustrates the requirement for O2 for PFL_4321 activity.
# To investigate 1-undecene formation and the O2 consumption, 0.5 mL of reaction mixture was prepared to contain 50 mM MES buffer (pH 6.2), 300 mM NaCl, 45 μM PFL_4321-Fe(II), and 500 μM LA (25 mM stock solution of LA sodium salt was prepared in 2% tergitol; tergitol is not required for <150 μM of LA). MES buffer (pH 6.2) was selected to reach slightly higher enzymatic activity than other buffers such as Bis-Tris (pH 6.0-7.0), Tris (pH 7.5-8.5), MOPS (pH 6.5-7.5), and HEPES (pH 6.8-8.0). The reaction was performed in a sealed headspace vial, initiated by adding PFL_4321 at room temperature and quenched by injecting equal volume of 5 M NaOH. 1-undecene production was analyzed and quantified using the SPME-GCMS method. The correlations of total 1-undecene produced and enzyme used were further determined varying PFL_4321 concentrations (40-1000 μM), and similar single turnover reactions were obtained in all assays (˜0.7-0.8 molecule of 1-undecene per molecule of PFL_4321-Fe(II)). O2 concentration was measured in a sealed reaction chamber (0.5 mL) with an integrated oxygen electrode unit (Oxygraph Plus System, Hansatech Instruments, UK). For the control group, LA was omitted from the reaction mixture.
# [4] = Enzyme recycling experiments; assay type: biochemical; settings: for 1-undecene produced (activity) compared with the original PFL_4321: recycled after single turnover with EDTA, reconstituted with fresh Fe2+
# Procedure: To recycle the PFL_4321, 1 mL of the oxygenated buffer solution (50 mM MES, pH 6.2, 100 mM NaCl) was mixed with 1 mL of an O2-free solution containing 50 mM MES buffer (pH 6.2), 100 mM NaCl, 200 μM PFL_4321, 1 mM (NH4)2Fe(SO4)2, 2 mM LA, so that the final mixture contained 50 mM MES buffer (pH 6.2), 100 mM NaCl, 100 μM PFL_4321, 0.5 mM (NH4)2Fe(SO4)2, and 1 mM LA. This original reaction was quenched by adding 10-fold excess of EDTA to iron. The mixture was desalted on a GE Disposable PD-10 column and incubated at 4° C. on a nutator for two hours to completely remove the residual 1-undecene in the solution. The recycled apo-PFL_4321 was concentrated by using Centrifugal Filter Units (Millipore) and subjected to a second enzymatic assay that contained 50 mM MES buffer (pH 6.2), 100 mM NaCl, 100 μM PFL_4321, 0.5 mM (NH4)2Fe(SO4)2, and 1 mM LA. To initiate the reaction, 100 μL of the oxygenated buffer solution (50 mM MES, pH 6.2, 100 mM NaCl) was mixed with 100 μL of an O2-free solution containing 50 mM MES buffer (pH 6.2), 100 mM NaCl, 200 μM PFL_4321, 1 mM (NH4)2Fe(SO4)2, 2 mM LA. The control group was set up under similar conditions except that the original apo-PFL_4321 which had not been used for any enzymatic reactions was used. The experimental group containing recycled PFL_4321 produced 80% of the 1-undecene compared with the control group that contained the original PFL_4321.
# [5] = measured stoichiometry, aerobic
molecule,measurement,setting,value
B1,1-undecene production in anaerobic enzymatic assays,[1]; anaerobic,nearly abolished
same,decrease of 1-undecene production in anaerobic enzymatic assays,[1]; anaerobic versus aerobic,more than 150 fold
same,production of 1-alkenes in Saccharomyces cerevisiae,[2],led to the production of 1-undecene and 1-nonene in comparable amounts
same,1-undecene produced per molecule of PFL_4321-Fe(II),[3]; [5],approximately one
same,O2 consumed per molecule of PFL_4321-Fe(II),[3]; [5],approximately one
same,total 1-undecene produced per enzyme used,"[3]; single turnover reactions, PFL_4321 40-1000 μM",0.7-0.8 molecule of 1-undecene per molecule of PFL_4321-Fe(II)
same,1-undecene production by recycled enzyme,"[4]; EDTA omitted, desalted",failed to catalyze the reaction
same,1-undecene produced (activity) compared with the original PFL_4321,[4]; listed as apo-PFL_4321,over 80%
same,1-undecene produced (activity) compared with the original PFL_4321,[4]; listed as recycled PFL_4321,80%
